Experimental data taken from US20250051409A1 (NATIONAL INSTITUTE FOR BIOTECHNOLOGY IN THE NEGEV, published 2025).

What was measured:
[1] = molecular target: T1, citrate synthase (CS), located in the matrix (endogenous) (UniProt O75390 28-466); assay: in situ proximity ligation assay
T1 sequence (looked up): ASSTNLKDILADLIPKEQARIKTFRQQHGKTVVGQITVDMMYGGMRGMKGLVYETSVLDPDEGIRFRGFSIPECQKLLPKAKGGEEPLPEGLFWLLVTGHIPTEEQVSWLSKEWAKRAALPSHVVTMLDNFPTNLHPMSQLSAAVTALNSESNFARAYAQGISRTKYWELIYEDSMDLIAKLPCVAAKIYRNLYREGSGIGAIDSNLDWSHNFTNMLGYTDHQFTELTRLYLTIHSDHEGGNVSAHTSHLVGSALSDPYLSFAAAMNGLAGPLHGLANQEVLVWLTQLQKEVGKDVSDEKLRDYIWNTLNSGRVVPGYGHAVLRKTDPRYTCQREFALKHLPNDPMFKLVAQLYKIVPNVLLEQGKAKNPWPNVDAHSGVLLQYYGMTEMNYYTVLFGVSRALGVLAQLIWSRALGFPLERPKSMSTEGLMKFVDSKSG

[2] = molecular target: T2, ATP synthase subunit 5A, inner mitochondria membrane protein (endogenous) (UniProt P25705 44-553, limits assumed); assay: in situ proximity ligation assay
T2 construct: also called ATPsyn5a; ATP5a
T2 sequence (P25705 44-553 limits assumed): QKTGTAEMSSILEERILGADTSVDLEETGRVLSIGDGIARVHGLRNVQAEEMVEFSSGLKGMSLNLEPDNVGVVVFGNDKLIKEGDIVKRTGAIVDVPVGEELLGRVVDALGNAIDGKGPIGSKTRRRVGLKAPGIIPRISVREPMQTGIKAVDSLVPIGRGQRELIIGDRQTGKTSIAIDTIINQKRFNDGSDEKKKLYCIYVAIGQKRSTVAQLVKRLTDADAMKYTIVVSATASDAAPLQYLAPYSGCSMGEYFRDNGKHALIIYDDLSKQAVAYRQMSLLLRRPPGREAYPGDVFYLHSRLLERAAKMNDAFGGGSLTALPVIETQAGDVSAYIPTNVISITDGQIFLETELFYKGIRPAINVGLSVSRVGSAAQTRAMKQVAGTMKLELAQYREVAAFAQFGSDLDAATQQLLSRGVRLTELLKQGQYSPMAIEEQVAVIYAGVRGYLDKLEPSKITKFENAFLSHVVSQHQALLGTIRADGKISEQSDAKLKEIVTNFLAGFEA

B1: PSD, endogenous, in A549 cells (enzyme)
chain: MMCQSEARQGPELRAAKWLHFPQLALRRRLGQLSCMSRPALKLRSWPLTVLYYLLPLGALRPLSRVGWRPVSRVALYKSVPTRLLSRAWGRLNQVELPHWLRRPVYSLYIWTFGVNMKEAAVEDLHHYRNLSEFFRRKLKPQARPVCGLHSVISPSDGRILNFGQVKNCEVEQVKGVTYSLESFLGPRTCTEDLPFPPAASCDSFKNQLVTREGNELYHCVIYLAPGDYHCFHSPTDWTVSHRRHFPGSLMSVNPGMARWIKELFCHNERVVLTGDWKHGFFSLTAVGATNVGSIRIYFDRDLHTNSPRHSKGSYNDFSVVGSLTR
notes: Intracellular endogenous protein, detected with antibodies in the proximity ligation assay; also called phosphatidylserine decarboxylase
binding result [1]: no binding

B2: SMAC/Diablo, endogenous, in A549 cells and A549 xenograft tumor sections (other, human, UniProt Q9NR28 56-239, looked up)
chain: AVPIAQKSEPHSLSSEALMRRAVSLVTDSTSTFLSQTTYALIEAITEYTKAVYTLTSLYRQYTSLLGKMNSEEEDEVWQVIIGARAEMTSKHQEYLKLETTWMTAVGLSEMAAEAAYQTGADQASITARNHIQLVKLQVEEVHQLSRKAETKLAEAQIEELRQKTQEEGEERAESEQEAYLRED
notes: Intracellular endogenous protein, detected with antibodies in the proximity ligation assay
binding result [2]: no binding
